Conditions in all cases: both partners purified
The target of one assay is T1, FP8v1-rTTHC (HIV-1, fusion peptide 512-519 (BG505 …)).
T1 construct: also called fusion peptide
T1 chain: AVGIGAVF
Description: ELISA.

The target in a further assay is T2, FP6v1-rTTHC (HIV-1, fusion peptide 512-517).
T2 construct: also called shorter peptides
T2 chain: AVGIGA
Description: ELISA; plates coated with 2 μg/mL fusion peptide-rTTHC; 2C06 or 2C09 antibody serially diluted from 2 μg/mL, 1 h 37°C; anti-human IgG-HRP. (In general: An ELISA detects its analyte on a solid surface through an enzyme-linked reagent.)

For another assay, the target named is T3, FP7v1-rTTHC (HIV-1, fusion peptide 512-518).
T3 construct: also called shorter peptides
T3 chain: AVGIGAV
Described as above.

B1: N751-2C06.01 IgG (antibody, V domains shown)
VH: EVQLVESGGGLVQPGGSLRLSCSASGFTFSSYAMHWVRQAPGKGLEYVSAISGNGDSTYYADSVRGRFTISRDNSKNTLYLQMSSLRAEDTAVYYCVKQAAYCTRTSCYYFDYWGQGTLVTVSS
VL: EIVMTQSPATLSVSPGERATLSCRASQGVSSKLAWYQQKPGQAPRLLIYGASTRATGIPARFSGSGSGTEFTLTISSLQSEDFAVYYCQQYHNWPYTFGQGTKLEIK
B1: in the assay with FP8v1-rTTHC, the binding result is on record as “binds”.

B2: N751-2C09.01 IgG (antibody, V domains shown)
VH: EVQLVESGEGLVQPGGSLRLSCAASGFTFSSHAMHWVRQAPGKGLEYVSAISSEGGSTYYADSVRGRFIISRDNSKNTLYLQMGSLRAEDMAVYYCARVTGDYNWYFDLWGRGTLVTVSS
VL: EIVMTQSPATLSVSPGERATLSCRASQGVSSNLAWYQQKPGQAPRLLIHGASTRATGSPARFSGSGSGTEFTLTISSLQSEDFAVYSCQQYHNWPWTFGQGTKVEIK
B2: the binding result in the assay with FP6v1-rTTHC, in the assay with FP7v1-rTTHC and with FP8v1-rTTHC was “binds” throughout.

The values above are taken from PMC10491024 (Cell reports, 2023).
